Reference: the supplement of paper PMC10567573

B1: IRX6 (parent)
chain: YPCLEKPRIWSLAHTATASAVEGA
B2: SNAP91 (parent)
chain: FGGSFMAPSPSPVTPAQNNLLQPN

Variants of: B1
Assay: protein stability index of a GFP-peptide fusion (GPS, HEK-293T) (PSI 1-6); higher = more stable
Conditions: c terminus: a fixed tail appended
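Further: lentivirally expressed fusions sorted by FACS into six bins by GFP to DsRed ratio, PSI derived from sequencing read proportions per bin multiplied by bin number.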

Protein stability index of substitutions, site by site:
V21: N 2.73 | K 1.45 | H 2.21 | M 1.82 | Y 2.29 | L 1.1 | D 1.82 | W 3.41 | F 3.51 | S 1.6 | P 3.82 | C 1.23 | T 2.23 | R 2.62
A18: M 3.02 | P 3.41 | K 2.59 | D 1.78 | H 2.15 | Y 3 | R 3.8 | T 3.02 | W 2.05 | V 2.84 | I 3.17 | N 2.65
A20: E 1.86 | N 2.87 | F 1.69 | Y 4.34 | H 3.49 | T 2.11 | K 3.07 | M 1.53 | I 2.52 | D 2.67 | L 3.52
G23: E 2.33 | L 2.7 | A 2.6 | Y 3.63 | V 3.24 | F 2.97 | S 2.13 | I 3.44 | Q 1.25 | W 1.98 | N 2.68 | C 1.41 | T 2.95
T17: D 2.17 | A 1.71 | P 2.72 | E 3.16 | S 1.83 | Y 2.64 | W 2.29 | M 2.36 | K 2 | G 3.55 | N 2.37 | Q 4.21 | L 1.25
A24: D 2.95 | E 2.22 | H 3.03 | C 2.18 | M 2.52 | S 1.91 | W 2.31 | K 3.48 | V 3.01 | I 3.09 | R 2.99 | Y 3.06
S19: W 3.1 | N 2.27 | D 1.83 | Q 3.07 | M 2.98 | K 1.9 | V 2.07 | R 1.91 | F 3.32 | Y 4.1 | E 1.97 | I 2.52
E22: K 2.29 | W 1.73 | D 2.16 | P 2.34 | M 3.75 | F 3.04 | R 2.98 | C 3.29 | S 1.1 | N 3.13 | L 2.67 | H 2.05 | G 3.1 | T 2.63 | V 2.62
A16: T 3.04 | Q 2.45 | S 1.93 | N 3.02 | Y 2.99 | W 3.44 | P 1.53 | V 4.23

Variants of: B2
Assay: as above
Conditions: c terminus: a fixed tail appended

Protein stability index, by site and new letter:
S11: K 1.98 | Q 3.14 | L 2.84 | V 3.42 | R 1.68
F5: A 3.83 | I 4.03
L21: R 2.88
G3: N 3.1 | T 2.44
P8: V 2.41 | F 2.53 | G 2.67 | Y 3.9 | W 3.12 | T 3.12 | A 1.54 | H 2
P12: V 1.73 | I 1.94 | A 2 | T 1.01 | H 2.53 | Y 2.09 | W 1.83 | C 2.72 | M 2.62
M6: R 2.24
P15: F 2.84 | W 1.6 | Q 2.27 | C 4.08 | D 2.67 | V 2.12
T14: V 2.2 | E 1.31 | Q 2.43 | W 1.95 | D 1.29 | G 2.08
P10: H 2.52 | K 3.1 | D 2.72 | R 1.13 | Q 2.7 | E 1.22 | V 1.58
A7: D 1.91 | H 3 | V 2.54
S9: R 1.89 | E 1.89 | M 2.31 | V 1.62 | W 3.59
F1: N 3.94
G2: R 3.23
